Results on 10 substances are retold here after US20140113854A1.

Experiment [1] deals with Human α-thrombin (human) (UniProt P00734). The experiment is described as follows: inhibition of thrombin by monovalent active-site moiety; conditions not given at the table.
The target is the same in experiment [2]. Kind of experiment: inhibition of thrombin-catalysed hydrolysis of chromogenic substrate S-2238, 37 °C.

Broadly, the Ki is the equilibrium dissociation constant of an inhibitor or competing ligand from its target. Lower therefore signals tighter binding. In the experiment with Human α-thrombin (human) [1], H-dFPR (peptide) registered a Ki of 1.57 µM.
On the same count and under the same terms, in the case of Dansyl-R-(d-Pip)-NH2 (peptide) it was 0.37 µM.
In the experiment with Human α-thrombin (human) [1], Dansyl-R-(d-Tic)-NH2 (peptide) returned a Ki of 0.86 µM.
Same read-out and setting: in the case of Bbs-R-(d-Pip)-W-NH2 (peptide) it was 6 µM.
On the same count and under the same terms, as for Ac-dFPR (peptide), the figure is 170 µM.
Boc-dFPR (peptide) displayed an inhibition constant (Ki) with Human α-thrombin (human) [1] of 4.38 µM.
Bbs-R-(d-Pip)-G-NH2 (peptide): in the experiment with Human α-thrombin (human) [1], the Ki worked out at 2.26 µM.
As to Bivalirudin (peptide), in the experiment with Human α-thrombin (human) [2], the Ki is 0.002 µM.
The substance Dansyl-R-(d-Pip)-Abu-NH2 (peptide) gave a Ki with Human α-thrombin (human) [1] of 0.82 µM.
On the same count and under the same terms, as for Bbs-R-(d-Pip)-NH2 (peptide), the figure is 1.13 µM.
